Experimental data: the DeepSol protein solubility set

Test: soluble on expression in E. coli; label from the status in PepcDB or PDB records
With “MGSDKIHHHHHHMADTAPQLKRKREQEAEEAETPSTEEKEAGVGNGTSAPVRLPFSGFRVQKVLRESARDKIIFLHGKVNEDSGDTHGEDAVVILEKTPFQVEHVAQLLTGSPELKLQFSNDIYSTYNLFPPRHLSDIKTTVVYPATEKHLQKYMRQDLRLIRETGDDYRTITLPYLESQSLSIQWVYNILDKKAEADRIVFENPDPSDGFVLIPDLKWNQQQLDDLYLIAICHRRGIRSLRDLTPEHLPLLRNILREGQEAILKRYQVTGDRLRVYLHYLPSYYHLHVHFTALGFEAPGSGVERAHLLAQVIENLECDPKHYQQRTLTFALRTDDPLLQLLQKAQQERN” the “soluble on expression in E. coli” value was “soluble”. In the case of “MGSDKIHHHHHHMAFCNNANLLNVFVRHIANNQLRSLAEVATVAHQLKLLKDDFFASDQQAVAVADRYPQDVFAEHTHDFCELVIVWRGNGLHVLNDRPYRITRGDLFYIHADDKHSYASVNDLVLQNIIYCPERLKLNLDWQGAIPGFNASAGQPHWRLGSMGMAQARQVIGQLEHESSQHVPFANEMAELLFGQLVMLLNRHRYTSDSLPPTSSETLLDKLITRLAASLKSPFALDKFCDEASCSERVLRQQFRQQTGMTINQYLRQVRVCHAQYLLQHSRLLISDISTECGFEDSNYFSVVFTRETGMTPSQWRHLNSQKD”, the “soluble on expression in E. coli” value is reported as “not soluble”. With “MGSDKIHHHHHHMAFTNNVMIVRHKLLAKLVNLWKENKLTNEIDRLPIELSPRRSRPLGRCCIHKERAVYKYKLFPLLGFDMTDETDELTSLSEYARQALERKNKQKENILCVIDEACSSCVQVNYEVTNLCRGCVARSCYMNCPKDAIRFRKNGQAKIDHDACISCGKCHQSCPYHAIVFIPVPCEEACPVKAISKDENGIEHIDESKCIYCGKCLNACPFGAIFEISQAFDVLEGIRSGEKMIAIPAPSILGQFNTSIEAVYGALRQMGFADVVEVAQGAMDTVSHEAAELKEKLEEGQPFMTTSCCPSYIELVNKHIPGMKPYVSSTGSPMYYAARIAKERHPDAKIVFIGPCVAKRKEARRDECVDYILTFEEMASIFEGLDIQLEQTQPFSVLYTSVREAHGFAQAGGVMGAIKAYLGEEAKKFSAIQVSDLNKKNIGLLRAAAKTGKAQGQFIEVMACEGGCISGPSAHNDAIGGRRQLNQELIKRRESYEETHR” the “soluble on expression in E. coli” value was “not soluble”. For “MGSDKIHHHHHHMAGATLLTSSCNDWLDVLPKNEQVSPEYWKTKEQVEEVLAQGYQNMRLTVPTLIYWGELRGASIYAYSGKSKQELQNFQLNSSSGECKWGGFYSILNVANSIIKYAPEVKRQDETYHEAVMNSNMAEAYFMRAWTYFTLVRNFKEVPLILEPYMTDEYAVDIPKSSEETIIAQIKLDIENALSTGAAKEMYDDEDWTGMSKGRVTVWALYALMADVCLWSEDYDGCVRYADMLINSTSAFRPAFVEDPEQWYNIFFPGNSNGSIFELNFDQSRNQSPDDDATASTYPSPSNVYPWTQSTVASLQFSNAMCKRLFDEQTDQWVTSNTVRGYGNTFVLSSGTVIGNSNTEGYLPFKFRIGGKDGLSTTRSYKDANWILYRMADVLLMKAEALIWKGGEANFAQALELINKIRTRANVTTLSVQTNAVSQENMLGYLLQERDLEFAAEGKRWYDLLRFGRSQNFKYKDQFINMIIENNSTVSASWIRSVLKNTDAWYLPISQGEIDSNPNLIQNPYYDVTAN”, the “soluble on expression in E. coli” value was “not soluble”. For “MGSDKIHHHHHHMAGIRAKQKEKTRQALINAAMNQLSAENGFSSLSLREVAREAGIAPTSFYRHFRDMDELGLTLVDECGLALRQLLRQARQRIESGGSIIRVSIETFMQFVANNTATFRLLLQERSGRSRSFRLAVVREIDHFKAELEDYLVNEQSFSRELAELQSDTIAKIVFSAGADCFDVDEEEREIITEKTILQVRLVARGAEATRRLLKRES”, the “soluble on expression in E. coli” value was “not soluble”. With “MGSDKIHHHHHHMAIITRIEVQKRNNERYNIFIHQNGQDVYAFSVDEQVLIKQGLRKGLDIDAEQMKQILYEDEVQKTFNLALHYLSYRMRSVHEVRTYLKKKDREEPIIEHVLHRLTEQRLLDDHAFAEAFIQTKRATTSKGPLKLKQELAEKGVSEKTIEGALTTFSYEEQVEQVKAWLEKQKGRTFKGSSLAWKQKLSRQLLAKGYTSPVIEEAFADVPIKQEEEEEWEALKAFGEKAMRKYAGKKTGWELQQKVKQALYRKGFSLEMIERYLND” the “soluble on expression in E. coli” value was “not soluble”. With “MGSDKIHHHHHHMAILTITKQFGSGGGEIGSAVANLLGYEYIPLKRVFEEAGQAGNRIKKLADEVSKSVPGLWERTDWSFLAFVAFSQSTILNYALQNNIVVMTRGGNMLLKSIPHALRILVTAPFDVRVRRIMEREEISEEIAVMMAKKADREMAVTIQQIYGTNWMDPTEYDQVIDTSKQNWNEIARSLKDSLMAKEKDFTAEAQKILNMKALATYIKVKIMTSPAFITPTLEVEMKGDILVISGVVRNPDQHKRIEEEVKKLAGDRYVEFHIHYRGSWPFRGI” the “soluble on expression in E. coli” value was “not soluble”. For “MGSDKIHHHHHHMAINTTPLSESSKNNPDKQNNFVIALAGNPNVGKSTVFNRLTGLKQHTGNWPGKTVIKAEGTFSHRNRHYTLVDLPGTYSLHASSSDEEVARNFICFSRPDITLVVCDATCLERNLNLVLQILEITDRVLVCVNLLDEAERKGIQVDIAMLARQLGIPVVGTAARSGRGLESLKNVLDDMLAGKIAIQPRQLVYDPELEASINRIEKRLAPYLPAWINSRWVTLRVLERDFSILEHISNHKNNDFPRQVLKEEVALCLR”, the “soluble on expression in E. coli” value was “not soluble”. In the case of “MGSDKIHHHHHHMAKKAKVQFECQSCGYVSPKYLGRCPNCGQWNSMVEEVIQDTSDRRARVSLTGKKTQPQRLSEVIPKKEPRVKTELVELNRVLGGGVVPGSLVLIGGDPGIGKSTLLLQVSQQLAATGGTVLYVSGEESAEQIKLRAERLGTVNETFYLYAETDMHEISRAIEKLEPDYVIIDSIQTMTQPDVTSVAGSVSQVRETTAELLKLAKTNGIAIFIVGHVTKEGSIAGPRMLEHMVDTVLYFEGDKHHTFRILRAVKNRFGSTNEIGIFEMQTHGLVEVMNPSQVFLEERLEGATGSSIVVAMEGSRPILVEIQALVTPTMFGNAKRTTTGLDFNRVSLIMAVLEKRAGLLLQNQDAYLKAAGGVKINEPAIDLALAISIASSYKEKGTSSSECFIGEIGLTGEIRRVNSIEQRVREAQKLGFTKVYVPKNNLGGWEAPEGIEIIGVSTIGETLRKVFK”, the “soluble on expression in E. coli” value is reported as “not soluble”. With “MGSDKIHHHHHHMAKSDLIVGLDIGTTKICCVVGEPTEEGIDIVGIGTSPSTGLRKGVVVNIEQTVQSIKKALEEAELMAGCEIRSVYAGIAGSHIKGANSDGVIAVKGGEVAPRDVERVLDAAKALNIPMDREVIHILPQEYIVDEQRGIADPLGMAGVRLEVKVHIVTGAVASAQNIVRSCHRSGLDVSDIVLEALASSKAVLTEEEREIGVALVDLGGGTTDIAVFANDSIKHTGVLALGGQNLTNDIAFGLRTPMASAEKIKIKYGCAMAEMVRDDEGIEVASVGDREPRRLSRQVLAEICEPRMEEILSLVDQELVRYGFKNMIGAGVVLTGGTALIEGCQELGEQIFNLPTRIGYPRNVGGLKDVVNSPKFATAVGLLCYGAEKEGLELKFRIRDGNMFNRVLSRMRKWFSDIS” the “soluble on expression in E. coli” value was “not soluble”. For “MGSDKIHHHHHHMAKVFLKRMNRRISGGHLWIFYNEILKVEGEYENGSVVDVFRPDGSFFGKGYINDNSKIRVRILTWKNEVIDRNFIKNRIESALKRKKKLVKETTAFRVVHSEGDFLPGLIVDLFGDYLVFQITTLGMEKMKDWILDSLVEIFKPKGIYEKSEGTFREKEGLDNREEWVYGKGPELIEFEMNGFKFLADTRGQKTGFFLDQRENARMVMDLAEGKVCLDVFSYTGNFAVHLLKGGAKHVTLVDYSERALEVAREILKLNGFDSSRYDLLPGNAFDILKSFDREGRKYDLVVLDPPSFAKSSSNLESARRGYKEINLRAMRILKKPGVLVTSSCTQIVSEELFREILFDASFDTKTSLTVLRRGGQPPDHPVLMNVPETQYLKFYILQVDKR”, the “soluble on expression in E. coli” value was “not soluble”. With “MGSDKIHHHHHHMALPTQLVYPGFEKIPRFWDNEQQSQVARVDPGEYYYSCQDEFIYTRLGSCVAACIWDPLMGIGGLNHFLLPEKVLHEDWHQLTSYSCRYGNWAMEQLINGILSAGGLKSRLKAKIFGGATLGRISVLNVGQSNIAFVREYLALEGIPVMSEDLGGPWPRKVLFHPQSGRVRLKRLEMTGMAQIEREEEAYLNDVAEHAKVPEPGSIELF” the “soluble on expression in E. coli” value was “not soluble”.
